The results in this text go back to paper PMC5355875, “Crystal structure of a raw-starch-degrading bacterial α-amylase belonging to subfamily 37 of the glycoside hydrolase family GH13” (Scientific Reports, 2017).

Data set [1] deals with T1, OC[C@H]1O[C@@H]2O[C@H]3[C@H](O)[C@@H](O)[C@@H](O[C@H]4[C@H](O)[C@@H](O)[C@@H](O[C@H]5[C@H](O)[C@@H](O)[C@@H](O[C@H]6[C@H](O)[C@@H](O)[C@@H](O[C@H]7[C@H](O)[C@@H](O)[C@@H](O[C@H]8[C@H](O)[C@@H](O)[C@@H](O[C@H]9[C@H](O)[C@@H](O)[C@@H](O[C@H]1[C@H](O)[C@H]2O)O[C@@H]9CO)O[C@@H]8CO)O[C@@H]7CO)O[C@@H]6CO)O[C@@H]5CO)O[C@@H]4CO)O[C@@H]3CO.
T1 construct: SBD-truncated catalytic domain, residues 1-496, N-terminal 6xHis (TEV site)
The data set is described as follows: reducing sugar assay (copper-bicinchoninate), Michaelis-Menten fit. Type of data set: biochemical, uncultured bacterium. The following applies: 40 °C, pH 6.5, 20 mM HEPES, 150 mM NaCl, 10 mM CaCl2. The text has this: (§1) reducing sugar assay (copper-bicinchoninate), Michaelis-Menten fit on AmyPΔSBD

For data set [2], the target named is T2, AmyP (uncultured bacterium, UniProt D9MZ14).
T2 construct: gene Amy-1E; full-length residues 1-639 crystallised, 6xHis tag cut by TEV, E. coli BL21(DE3); only residues 1-496 (AmyPΔSBD) seen in crystals, SBD partly degraded
The data set can be described thus: X-ray crystal structure, […] Å. The class given is binding. The following applies: co-crystallised with β-CD, pH 8.5; active site, subsites -2 and -3.

Data set [3] has as its target T3, AmyP (uncultured bacterium, UniProt D9MZ14, E221Q).
T3 construct: gene Amy-1E; full-length residues 1-639 crystallised, 6xHis tag cut by TEV, E. coli BL21(DE3); only residues 1-496 (AmyPΔSBD) seen in crystals, SBD partly degraded
The data set is described as follows: X-ray crystal structure, […] Å. Type of data set: binding. The following applies: co-crystallised with γ-CD, pH 6.0; active site, subsites -1, -2 and -3.

Substrate in data set [4]: OC[C@H]1O[C@@H]2O[C@H]3[C@H](O)[C@@H](O)[C@@H](O[C@H]4[C@H](O)[C@@H](O)[C@@H](O[C@H]5[C@H](O)[C@@H](O)[C@@H](O[C@H]6[C@H](O)[C@@H](O)[C@@H](O[C@H]7[C@H](O)[C@@H](O)[C@@H](O[C@H]8[C@H](O)[C@@H](O)[C@@H](O[C@H]9[C@H](O)[C@@H](O)[C@@H](O[C@H]1[C@H](O)[C@H]2O)O[C@@H]9CO)O[C@@H]8CO)O[C@@H]7CO)O[C@@H]6CO)O[C@@H]5CO)O[C@@H]4CO)O[C@@H]3CO
The data set can be described thus: reducing sugar assay (copper-bicinchoninate), Michaelis-Menten fit. Type of data set: biochemical, uncultured bacterium. As to conditions: 40 °C, pH 6.5, 20 mM HEPES, 150 mM NaCl, 10 mM CaCl2.
Description: as §1

Substitutions are numbered along the chain they refer to. Numbers in names are those of the source.

As for AmyPΔSBD (uncultured bacterium; K131A), in data set [1], the Michaelis constant (Km) came to 1290 ± 130 µM, the catalytic constant (kcat) was found to be 7.47 ± 0.004 s⁻¹ and the kcat/Km amounted to 5800 M⁻¹ s⁻¹.
With `OC[C@H]1O[C@H](O[C@H]2[C@H](O)[C@@H](O)C(O)O[C@@H]2CO)[C@H](O)[C@@H](O)[C@@H]1O` (some centres unmarked) [maltose], the “X-ray crystal structure, 1.95 Å” value on AmyP [2] was “electron density representing a maltose molecule at subsites -2 and -3”.
`OC[C@H]1O[C@H](O[C@H]2[C@H](O)[C@@H](O)[C@@H](O[C@H]3[C@H](O)[C@@H](O)C(O)O[C@@H]3CO)O[C@@H]2CO)[C@H](O)[C@@H](O)[C@@H]1O` (some centres unmarked) [maltotriose]: the “X-ray crystal structure, 2.55 Å” value on AmyP [3] is “electron density representing a maltotriose molecule bound to the active site”.
As for AmyPΔSBD (uncultured bacterium; N148A), in data set [1], the Km was found to be 200 ± 30 µM, the kcat was 22.59 ± 0.007 s⁻¹ and the kcat/Km amounted to 113000 M⁻¹ s⁻¹.

B1: AmyPΔSBD (uncultured bacterium) (protein)
chain: MCDSALTAQANDLRIYQVMVESFVNGDDAIGHGTGYGTSHHKGDLQGIIDSLDYIESLGMNAIWLTPIFDSIPVEGQDHWADRLDATGYFTSNYFAVDPRFGTMEQAKELVEKAHEKGLYVFFDGVFGHHKDNVVPSPEGRLPVGENNPVSYPESLAFYQEVATFWIEELKIDGWRLDQAYQVPTEAWTAIRASVDEASKSVTYVNSEGEAVNPLGYMVAEIWNNENYIKETGYGAEGEPALCSAFDFPVRYRVVETFAANENGIGNKGGKWLDEGMNLHRLYPSHAQPNLMLGNHDLVRFGDLLQRGNIASPEQAEYWERHKAALSFQAAYSGPITLYYGEEIGDELEGYAQKVEQDCAVQGLCDDHVARTSANIDGLTVNLNEKQRDLKQYVSQLMTLRAAHPALSRGERTNIVANETVYIDHKQADDDALIYMVSTTADQDTVELKASDIASDGQLVDLLTGKVHSAINGEYQISLAPFEAKFLLIETPSASG
notes: SBD-truncated catalytic domain, residues 1-496, N-terminal 6xHis (TEV site)
As for B1, in data set [4], the Km came to 120 ± 5 µM, the kcat came out at 39.58 ± 0.004 s⁻¹ and the kcat/Km amounted to 323000 M⁻¹ s⁻¹.

B2: AmyPΔSBD (uncultured bacterium; Y351A) (protein)
chain: B1 chain with Y351A
notes: as for B1
In the case of B2, in data set [4], the Michaelis-Menten constant (Km) was 2110 ± 90 µM, the kcat worked out at 25.02 ± 0.006 s⁻¹ and the kcat/Km amounted to 11900 M⁻¹ s⁻¹.

B3: AmyPΔSBD (uncultured bacterium; N148Y) (protein)
chain: B1 chain with N148Y
notes: as for B1
For the molecule B3, in data set [4], the Km was determined as 100 ± 9 µM, the kcat came out at 26.11 ± 0.01 s⁻¹ and the kcat/Km came to 274000 M⁻¹ s⁻¹.
